Literature values as cited in patent publication US8901073B2, “Compounds and their effects on feeding behaviour” (Imperial Innovations Limited, priority 2011, dated 2014).

Details: endogenous PYY in circulation; cited from earlier work

Substance: endogenous PYY: peptide YY polypeptide, a hormone secreted into the blood by cells lining the lower small intestine and the colon
- half life: several minutes
